Among the data in PMC9482650, “Quantitative fragmentomics allow affinity mapping of interactomes” (Nature Communications, 2022) are pKd values, retold here.

Some targets named below: AHNAK2, Q8IVF2; DLG2_1, Q15700; LMO7, Q8WWI1; MAGI1_3, Q96QZ7; MAGI1_5, Q96QZ7; MAGI3_4, Q5TCQ9; MAGIX, Q9H6Y5; PARD3B_2, Q8TEW8; PTPN13_2, Q12923.
Holding throughout (assay): holdup assay
Set-up in all cases: key: below the threshold = too weak to quantify, mostly under pKd 3.1 to 4
What all share (conditions): plain residues with an end cap or a label only (N-terminal biotin on a linker: ttds)

The next experiment has as its target T1, LNX2_4, Q8N448.
T1 sequence (Q8N448 595-690, limits assumed, looked up): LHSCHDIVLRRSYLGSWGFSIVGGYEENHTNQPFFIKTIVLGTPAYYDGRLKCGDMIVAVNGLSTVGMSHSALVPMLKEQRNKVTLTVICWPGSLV

For a further experiment, the target named is T2, MLLT4, P55196.
T2 sequence (P55196 1002-1103, limits assumed, looked up): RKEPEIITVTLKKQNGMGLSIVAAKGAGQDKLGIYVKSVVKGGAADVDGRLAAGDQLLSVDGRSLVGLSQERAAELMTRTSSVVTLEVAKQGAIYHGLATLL

For a further experiment, the target named is T3, MPDZ_13, O75970.
T3 sequence (O75970 1982-2070, limits assumed, looked up): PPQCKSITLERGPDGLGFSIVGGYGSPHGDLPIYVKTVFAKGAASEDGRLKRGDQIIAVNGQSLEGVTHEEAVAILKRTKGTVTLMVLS

The next experiment addresses T4, MPDZ_6, O75970.
T4 sequence (O75970 1003-1099, limits assumed, looked up): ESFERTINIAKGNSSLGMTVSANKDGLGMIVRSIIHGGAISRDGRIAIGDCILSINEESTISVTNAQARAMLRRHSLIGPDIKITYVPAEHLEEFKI

Another experiment has as its target T5, MPDZ_7, O75970.
T5 sequence (O75970 1146-1253, limits assumed, looked up): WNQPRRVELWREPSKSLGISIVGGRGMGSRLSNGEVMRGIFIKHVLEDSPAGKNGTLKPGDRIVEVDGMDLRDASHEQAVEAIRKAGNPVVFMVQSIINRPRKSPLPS

For the next experiment, the target named is T6, NHERF1_2, O14745.
T6 sequence (O14745 149-244, limits assumed, looked up): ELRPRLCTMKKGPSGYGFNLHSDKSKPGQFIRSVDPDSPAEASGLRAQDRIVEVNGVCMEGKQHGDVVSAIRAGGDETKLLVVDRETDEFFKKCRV

The target of the next experiment is T7, PDLIM3, Q53GG5.
T7 sequence (Q53GG5 1-94, limits assumed, looked up): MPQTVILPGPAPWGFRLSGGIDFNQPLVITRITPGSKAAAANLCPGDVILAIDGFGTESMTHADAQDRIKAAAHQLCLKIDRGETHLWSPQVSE

In another experiment the target is T8, PDZD2_5, O15018.
T8 sequence (O15018 2617-2716, limits assumed, looked up): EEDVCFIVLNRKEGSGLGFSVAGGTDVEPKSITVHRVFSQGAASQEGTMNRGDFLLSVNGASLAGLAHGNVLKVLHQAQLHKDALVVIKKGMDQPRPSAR

The next experiment addresses T9, PDZD2_6, O15018.
T9 sequence (O15018 2745-2839, limits assumed, looked up): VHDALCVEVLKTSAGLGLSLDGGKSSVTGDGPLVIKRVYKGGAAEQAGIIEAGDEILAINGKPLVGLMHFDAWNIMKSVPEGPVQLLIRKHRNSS

A further experiment deals with T10, PREX2_2, Q70Z35.
T10 sequence (Q70Z35 672-764, limits assumed, looked up): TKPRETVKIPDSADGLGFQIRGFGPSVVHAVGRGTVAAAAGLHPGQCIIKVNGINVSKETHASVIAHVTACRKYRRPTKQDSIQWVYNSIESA

A further experiment has as its target T11, SHROOM2, Q13796.
T11 sequence (Q13796 21-118, limits assumed, looked up): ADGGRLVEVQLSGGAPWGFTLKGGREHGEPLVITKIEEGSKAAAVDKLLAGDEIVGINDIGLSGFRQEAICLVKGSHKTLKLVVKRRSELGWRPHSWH

For a further experiment, the target named is T12, SNTB2, Q13425.
T12 sequence (Q13425 110-208, limits assumed, looked up): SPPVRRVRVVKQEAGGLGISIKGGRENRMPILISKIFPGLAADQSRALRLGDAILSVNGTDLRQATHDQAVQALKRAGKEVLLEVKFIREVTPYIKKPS

The target in a further experiment is T13, TJP3_1, O95049.
T13 sequence (O95049 6-103, limits assumed, looked up): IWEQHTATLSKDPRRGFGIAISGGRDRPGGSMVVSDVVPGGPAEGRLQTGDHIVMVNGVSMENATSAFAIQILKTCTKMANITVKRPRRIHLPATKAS

The target in a further experiment is T14, TJP3_2, O95049.
T14 sequence (O95049 190-282, limits assumed, looked up): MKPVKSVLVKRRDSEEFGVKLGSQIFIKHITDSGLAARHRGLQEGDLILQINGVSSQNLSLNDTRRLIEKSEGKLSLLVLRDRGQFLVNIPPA

Chain of PARD3B_2, Q8TEW8 (Q8TEW8 376-471): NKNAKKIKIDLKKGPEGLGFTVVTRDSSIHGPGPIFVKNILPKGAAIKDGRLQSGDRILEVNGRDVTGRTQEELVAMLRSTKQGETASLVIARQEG
Chain of PTPN13_2, Q12923 (Q12923 1363-1462): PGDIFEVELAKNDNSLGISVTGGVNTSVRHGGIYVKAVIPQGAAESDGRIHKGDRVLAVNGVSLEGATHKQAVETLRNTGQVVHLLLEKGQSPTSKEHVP
Chain of MAGIX, Q9H6Y5 (Q9H6Y5 118-211): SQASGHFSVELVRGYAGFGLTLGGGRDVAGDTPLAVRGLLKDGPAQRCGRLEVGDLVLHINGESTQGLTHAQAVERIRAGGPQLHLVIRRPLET
Chain of MAGI3_4, Q5TCQ9 (Q5TCQ9 716-815): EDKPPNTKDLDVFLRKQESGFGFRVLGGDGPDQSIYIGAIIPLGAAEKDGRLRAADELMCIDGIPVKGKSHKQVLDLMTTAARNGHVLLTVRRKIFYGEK
Chain of AHNAK2, Q8IVF2 (Q8IVF2 108-193): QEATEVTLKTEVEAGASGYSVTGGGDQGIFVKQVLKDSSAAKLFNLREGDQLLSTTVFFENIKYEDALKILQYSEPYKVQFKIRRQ
Chain of LMO7, Q8WWI1 (Q8WWI1 1037-1138): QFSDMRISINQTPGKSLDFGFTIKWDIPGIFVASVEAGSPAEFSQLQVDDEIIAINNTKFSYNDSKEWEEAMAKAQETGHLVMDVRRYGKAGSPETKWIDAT
Chain of MAGI1_5, Q96QZ7 (Q96QZ7 986-1098): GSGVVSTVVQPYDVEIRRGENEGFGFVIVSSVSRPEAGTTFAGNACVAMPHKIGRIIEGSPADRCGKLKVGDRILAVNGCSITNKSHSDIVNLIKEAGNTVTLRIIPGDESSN
Chain of MAGI1_3, Q96QZ7 (Q96QZ7 638-725): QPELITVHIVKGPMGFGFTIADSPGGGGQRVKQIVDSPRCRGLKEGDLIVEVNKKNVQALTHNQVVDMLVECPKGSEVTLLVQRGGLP

For SSLQSLETSV [ATP2B4, P23634], the pKd entry was “below the threshold” in the experiment with AHNAK2, Q8IVF2; 4.94 with DLG2_1, Q15700; 4.5 in the experiment with LMO7, Q8WWI1; “below the threshold” with LNX2_4, Q8N448; 4.44 in the experiment with MAGI1_3, Q96QZ7; 4.66 with MAGI1_5, Q96QZ7. The pKd entry with MAGI3_4, Q5TCQ9 is on record as “below the threshold”; with MAGIX, Q9H6Y5 it was “below the threshold”; with MLLT4, P55196, “below the threshold”; in the experiment with MPDZ_13, O75970, “below the threshold”; with MPDZ_6, O75970, “below the threshold”; in the experiment with MPDZ_7, O75970, “below the threshold”. Besides, the pKd entry in the experiment with NHERF1_2, O14745 is on record as “below the threshold”; with PARD3B_2, Q8TEW8 it was “below the threshold”; with PDLIM3, Q53GG5, “below the threshold”; with PDZD2_5, O15018, “below the threshold”; with PDZD2_6, O15018, “below the threshold”; in the experiment with PREX2_2, Q70Z35 it was “below the threshold”. In addition, the pKd was 4.45 with PTPN13_2, Q12923; “below the threshold” with SHROOM2, Q13796; 4.87 with SNTB2, Q13425; “below the threshold” with TJP3_1, O95049; “below the threshold” with TJP3_2, O95049.

In the case of QRQARSETLV [HPV59-E6, Q81964], the pKd result with AHNAK2, Q8IVF2 is “below the threshold”; with DLG2_1, Q15700 it was 4.52; in the experiment with LMO7, Q8WWI1, “below the threshold”; in the experiment with LNX2_4, Q8N448, 4.61; with MAGI1_3, Q96QZ7 it was 5.25; with MAGI1_5, Q96QZ7, 5.41. The negative-log Kd (pKd) result with MAGI3_4, Q5TCQ9 was “below the threshold”; with MAGIX, Q9H6Y5, “below the threshold”; with MLLT4, P55196 it was 4.33; with MPDZ_13, O75970 it was “below the threshold”; with MPDZ_6, O75970, “below the threshold”; with MPDZ_7, O75970 it was 4.28. For the same molecule, the pKd entry is on record as “below the threshold” with NHERF1_2, O14745; “below the threshold” with PARD3B_2, Q8TEW8; “below the threshold” in the experiment with PDLIM3, Q53GG5; “below the threshold” in the experiment with PDZD2_5, O15018; “below the threshold” in the experiment with PDZD2_6, O15018; “below the threshold” with PREX2_2, Q70Z35. In addition, the pKd entry is given as “below the threshold” in the experiment with PTPN13_2, Q12923; “below the threshold” with SHROOM2, Q13796; “below the threshold” with SNTB2, Q13425; “below the threshold” in the experiment with TJP3_1, O95049; “below the threshold” in the experiment with TJP3_2, O95049.

For the molecule SKPTRRETEV [HPV35-E6, P27228], the pKd is 4.91 with DLG2_1, Q15700; 4.09 with MAGI1_3, Q96QZ7; 4.43 with MAGI1_5, Q96QZ7; 3.76 in the experiment with MAGI3_4, Q5TCQ9; 3.56 with MAGIX, Q9H6Y5; 3.79 with MLLT4, P55196. For the same molecule, the pKd in the experiment with MPDZ_13, O75970 was 3.77; with MPDZ_6, O75970, “below the threshold”; with MPDZ_7, O75970 it was “below the threshold”; with NHERF1_2, O14745 it was “below the threshold”; with PARD3B_2, Q8TEW8, “below the threshold”; with PDLIM3, Q53GG5, “below the threshold”. Further, the pKd is 3.77 with PDZD2_5, O15018; “below the threshold” with PDZD2_6, O15018; 3.62 in the experiment with PREX2_2, Q70Z35; “below the threshold” with PTPN13_2, Q12923; “below the threshold” with SHROOM2, Q13796; “below the threshold” with TJP3_1, O95049.

Consider RHTTSTETAV [HPV30-E6, P36809], for which the negative-log Kd (pKd) result is “below the threshold” with AHNAK2, Q8IVF2; 4.84 with DLG2_1, Q15700; “below the threshold” in the experiment with LMO7, Q8WWI1; “below the threshold” with LNX2_4, Q8N448; 4.72 with MAGI1_3, Q96QZ7; 5.02 with MAGI1_5, Q96QZ7. Further, the pKd entry in the experiment with MAGI3_4, Q5TCQ9 is “below the threshold”; in the experiment with MAGIX, Q9H6Y5, 5.35; with MLLT4, P55196 it was “below the threshold”; with MPDZ_13, O75970, “below the threshold”; in the experiment with MPDZ_6, O75970, “below the threshold”; with MPDZ_7, O75970, “below the threshold”. Moreover, the pKd entry with NHERF1_2, O14745 is given as “below the threshold”; in the experiment with PARD3B_2, Q8TEW8, “below the threshold”; with PDLIM3, Q53GG5, “below the threshold”; with PDZD2_5, O15018, “below the threshold”; with PDZD2_6, O15018, “below the threshold”; with PREX2_2, Q70Z35, “below the threshold”. For the same molecule, the pKd entry with PTPN13_2, Q12923 is “below the threshold”; with SHROOM2, Q13796 it was “below the threshold”; with SNTB2, Q13425, 4.68; with TJP3_1, O95049 it was “below the threshold”; with TJP3_2, O95049, “below the threshold”.

For the molecule RLQRRRETQV [HPV18-E6, P06463], the pKd was 5.11 in the experiment with DLG2_1, Q15700; “below the threshold” with LMO7, Q8WWI1; “below the threshold” with LNX2_4, Q8N448; “below the threshold” with MAGI1_3, Q96QZ7; “below the threshold” with MAGI1_5, Q96QZ7; “below the threshold” with MAGI3_4, Q5TCQ9. In addition, the pKd result with MAGIX, Q9H6Y5 is “below the threshold”; with MLLT4, P55196, “below the threshold”; with MPDZ_13, O75970, “below the threshold”; in the experiment with MPDZ_6, O75970 it was “below the threshold”; in the experiment with MPDZ_7, O75970, “below the threshold”; with NHERF1_2, O14745, “below the threshold”. The pKd entry in the experiment with PARD3B_2, Q8TEW8 is “below the threshold”; in the experiment with PDLIM3, Q53GG5, “below the threshold”; with PDZD2_5, O15018, “below the threshold”; with PDZD2_6, O15018 it was “below the threshold”; with PREX2_2, Q70Z35 it was 4; with PTPN13_2, Q12923 it was “below the threshold”. For the same molecule, the pKd result in the experiment with SHROOM2, Q13796 was “below the threshold”; in the experiment with SNTB2, Q13425, 4.58; with TJP3_1, O95049, “below the threshold”; with TJP3_2, O95049, “below the threshold”.

As a reminder, the pKd is the Kd on a negative log10 scale, so that one unit is a factor of ten.
